According to patent publication US11911450B2, “Method for managing pain” (UNIVERSITY OF MIAMI, priority 2017, dated 2024):

What was measured:
[1] = tested on: intracellular calcium release in NBL cells; test: ATP-stimulated calcium release in NBL cells (Fura2 imaging); type: cell-based, human; settings: 1 μM ATP, vs empty vector
Procedure: Pharmacodynamics—Bioassay of Calcium Release: Fifteen mm glass coverslips (cat #72228 Electron Microscopy Sciences, Hatfield, PA) were coated with poly-D-Lysine (Sigma) followed by Laminin and 1×10^5 cells were seeded on each coverslip. Twenty-four hrs later, cells were transfected with AAV2-ITR, AAV2-V5-Car10, or AAV2-V5-CA10 vectors as previously described. In embodiments wherein AAV2 is not employed, other expression vectors (including viral vectors) are used. Fura-2AM (cat #F1221 ThermoFisher scientific, Waltham, MA) was dissolved in DMSO (50 μg in 50 μl) and 1% pluronic acid-127 (cat #P2443 Sigma, St Louis, MO) as the stock solution. Forty eight hrs after seeding, cells were loaded with 2 μM Fura-2AM dye for 45 min at room temperature in the dark in a standard Ca+2 buffer solution containing: 125 mM NaCl, 2 mM MgCl, 4.5 mM KCl, 10 glucose, 20 mM HEPES, 2 mM CaCl2, pH 7.4.25. Following dye loading, coverslips were washed with Ca^+2 buffer solution. […] Regions of interest over the field of view were selected and the mean pixels intensity at each frame was measured. Data was plotted as ratio fluorescence intensity versus time and subsequently converted to a relative scale. […]

[2] = molecular target: ITPR1 (Homo sapiens, UniProt Q14643); test: NGF-induced intracellular calcium release / ITPR1 activation in NBL cells; type: cell-based; parameters: endogenous in cells
Chain of ITPR1 (Q14643 whole entry): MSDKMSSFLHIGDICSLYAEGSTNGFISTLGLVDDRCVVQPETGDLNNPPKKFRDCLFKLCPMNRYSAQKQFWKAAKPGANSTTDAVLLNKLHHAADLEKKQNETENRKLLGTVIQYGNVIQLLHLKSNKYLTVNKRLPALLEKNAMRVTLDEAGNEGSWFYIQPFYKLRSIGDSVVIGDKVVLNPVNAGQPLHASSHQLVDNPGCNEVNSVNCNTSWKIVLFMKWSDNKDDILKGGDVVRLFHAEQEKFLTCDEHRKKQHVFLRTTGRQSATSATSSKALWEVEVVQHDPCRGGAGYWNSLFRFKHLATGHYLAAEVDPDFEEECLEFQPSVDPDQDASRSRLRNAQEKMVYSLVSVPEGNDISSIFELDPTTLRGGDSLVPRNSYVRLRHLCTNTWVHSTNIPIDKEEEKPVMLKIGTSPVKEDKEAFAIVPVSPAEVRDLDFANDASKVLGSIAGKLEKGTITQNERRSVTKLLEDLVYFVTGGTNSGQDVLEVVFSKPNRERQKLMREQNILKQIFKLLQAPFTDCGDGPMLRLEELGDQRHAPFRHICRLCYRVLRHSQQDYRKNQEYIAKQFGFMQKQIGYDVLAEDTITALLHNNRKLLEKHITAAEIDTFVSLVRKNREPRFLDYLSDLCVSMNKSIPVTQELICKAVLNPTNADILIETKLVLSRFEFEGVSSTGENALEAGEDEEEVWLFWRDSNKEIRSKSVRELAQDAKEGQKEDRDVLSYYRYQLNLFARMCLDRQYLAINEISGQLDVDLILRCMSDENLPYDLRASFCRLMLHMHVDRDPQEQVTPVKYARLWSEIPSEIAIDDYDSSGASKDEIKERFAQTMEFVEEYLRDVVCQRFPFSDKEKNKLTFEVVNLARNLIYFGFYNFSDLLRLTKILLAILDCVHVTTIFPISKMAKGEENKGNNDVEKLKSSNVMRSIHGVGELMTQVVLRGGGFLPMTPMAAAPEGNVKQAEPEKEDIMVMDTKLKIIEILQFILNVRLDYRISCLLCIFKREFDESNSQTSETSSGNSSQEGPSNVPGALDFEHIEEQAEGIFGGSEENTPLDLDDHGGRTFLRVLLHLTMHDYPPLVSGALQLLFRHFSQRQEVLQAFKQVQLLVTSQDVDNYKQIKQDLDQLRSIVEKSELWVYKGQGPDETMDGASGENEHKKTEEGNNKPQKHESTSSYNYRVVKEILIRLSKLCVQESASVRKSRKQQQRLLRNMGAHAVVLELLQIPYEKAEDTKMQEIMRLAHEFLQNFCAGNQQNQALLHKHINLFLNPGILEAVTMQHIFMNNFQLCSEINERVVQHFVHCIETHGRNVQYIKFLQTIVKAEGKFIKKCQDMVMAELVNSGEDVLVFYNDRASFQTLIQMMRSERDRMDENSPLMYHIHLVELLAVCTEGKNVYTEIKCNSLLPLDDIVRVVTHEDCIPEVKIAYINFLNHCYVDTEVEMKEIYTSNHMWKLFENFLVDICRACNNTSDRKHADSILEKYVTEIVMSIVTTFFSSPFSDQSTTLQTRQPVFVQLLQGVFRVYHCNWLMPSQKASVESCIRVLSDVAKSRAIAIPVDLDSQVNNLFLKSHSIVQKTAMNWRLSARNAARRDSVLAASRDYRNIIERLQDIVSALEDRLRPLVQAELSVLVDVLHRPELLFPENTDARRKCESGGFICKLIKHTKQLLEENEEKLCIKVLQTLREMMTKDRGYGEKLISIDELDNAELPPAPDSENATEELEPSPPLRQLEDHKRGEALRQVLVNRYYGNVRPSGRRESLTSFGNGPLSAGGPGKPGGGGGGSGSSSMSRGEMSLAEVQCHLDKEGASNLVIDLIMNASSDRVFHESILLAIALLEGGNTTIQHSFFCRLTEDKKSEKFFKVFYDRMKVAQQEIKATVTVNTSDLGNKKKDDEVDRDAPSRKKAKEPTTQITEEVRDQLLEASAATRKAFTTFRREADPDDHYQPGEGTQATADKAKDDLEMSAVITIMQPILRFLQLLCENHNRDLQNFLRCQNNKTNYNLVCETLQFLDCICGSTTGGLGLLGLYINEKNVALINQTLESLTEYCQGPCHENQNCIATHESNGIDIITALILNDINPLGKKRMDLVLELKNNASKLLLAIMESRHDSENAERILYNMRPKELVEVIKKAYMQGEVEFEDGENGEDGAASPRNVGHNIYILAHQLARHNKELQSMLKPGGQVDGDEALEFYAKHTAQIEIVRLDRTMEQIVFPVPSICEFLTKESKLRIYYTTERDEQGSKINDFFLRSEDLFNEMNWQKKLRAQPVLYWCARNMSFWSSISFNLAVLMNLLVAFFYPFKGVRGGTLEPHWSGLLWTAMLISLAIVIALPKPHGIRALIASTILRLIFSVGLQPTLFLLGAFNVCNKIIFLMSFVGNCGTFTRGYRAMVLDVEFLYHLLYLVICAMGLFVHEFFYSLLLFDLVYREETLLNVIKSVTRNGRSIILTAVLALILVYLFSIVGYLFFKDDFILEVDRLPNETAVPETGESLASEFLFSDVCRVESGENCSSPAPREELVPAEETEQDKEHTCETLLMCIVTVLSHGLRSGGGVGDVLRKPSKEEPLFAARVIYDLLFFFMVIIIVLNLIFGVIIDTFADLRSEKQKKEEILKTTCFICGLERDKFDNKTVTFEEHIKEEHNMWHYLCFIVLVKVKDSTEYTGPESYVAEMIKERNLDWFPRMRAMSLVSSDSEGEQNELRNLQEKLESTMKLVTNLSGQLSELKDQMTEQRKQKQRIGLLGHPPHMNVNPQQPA

B1: CA8-201: wildtype full length CA8 transcript/peptide (protein, UniProt P35219 1-290, looked up)
chain: MADLSFIEDTVAFPEKEEDEEEEEEGVEWGYEEGVEWGLVFPDANGEYQSPINLNSREARYDPSLLDVRLSPNYVVCRDCEVTNDGHTIQVILKSKSVLSGGPLPQGHEFELYEVRFHWGRENQRGSEHTVNFKAFPMELHLIHWNSTLFGSIDEAVGKPHGIAIIALFVQIGKEHVGLKAVTEILQDIQYKGKSKTIPCFNPNTLLPDPLLRDYWVYEGSLTIPPCSEGVTWILFRYPLTISQLQIEEFRRLRTHVKGAELVEGCDGILGDNFRPTQPLSDRVIRAAFQ
modifications: full-length V5 tag
notes: wildtype full length CA8 transcript/peptide
[1]
  ATP-stimulated calcium release: able to inhibit Ca^2+ release
[2]
  NGF-induced ITPR1 activation (pITPR1): inhibits NGF-induced ITPR1 activation (pITPR1)
[2]; NBL cells
  NGF-induced intracellular calcium release: nearly completely
